Measured values: patent US12037382 (STICHTING VU, dated 2024)

Experiments:
[1] = target: T1, US28 wild type, G protein-coupled receptor of human cytomegalovirus strain VHL/E (human cytomegalovirus strain VHL/E); experiment: competition of unlabeled CX3CL1 against 125I-CX3CL1 on US28
T1 construct: whole, on cells; In some assays membranes of transfected cells were used; also called US28-WT; US28 VHL/E

[2] = target: T1, US28 wild type, G protein-coupled …; experiment: displacement of 125I-CX3CL1 from US28-expressing HEK293T membranes by unlabeled CX3CL1

B1: human chemokine CX3CL1 (ligand, UniProt P78423 25-100, looked up)
chain: QHHGVTKCNITCSKMTSKIPVALLIHYQQNQASCGKRAIILETRQHRLFCADPKEQWVKDAMQHLDRQAAALTRNG
modifications: 125I label where used as radioligand
notes: also called CX3CL1/Fractalkine
- IC50 (read off the curve) [1]: ~100 pM
- IC50 (read off the curve) [2]: ~300 pM
